Measurements as given in PMC10998906 (NPJ Vaccines, 2024).

Target: H5 GCN4 (IN05 HA, GCN4-trimerized) (Influenza A virus …, UniProt A5A5L7, stabilised)
Experiment: negative-stain EM
Conditions: both partners purified

B1: CR9114 Fab (Fab, V domains shown)
VH: QVQLVQSGAEVKKPGSSVKVSCKSSGGTSNNYAISWVRQAPGQGLDWMGGISPIFGSTAYAQKFQGRVTISADIFSNTAYMELNSLTSEDTAVYFCARHGNYYYYSGMDVWGQGTTVTVSS
VL: QSALTQPPAVSGTPGQRVTISCSGSDSNIGRRSVNWYQQFPGTAPKLLIYSNDQRPSVVPDRFSGSKSGTSASLAISGLQSEDEAEYYCAAWDDSLKGAVFGGGTQLTVL
B1 was tested, and the “stoichiometry N” value was 3 Fabs per trimer.
